Measurements from publication PMC9561379.

Columns and labels:
[1] = target: asymmetric nucleosome MB/WT (MB-modified H2A/H2B S112C dimer in the upstream position, WT dimer downstream) (Xenopus) (UniProt P06897)
[2] = target: asymmetric nucleosome WT/MB (WT dimer in the upstream position, MB-modified H2A/H2B S112C dimer downstream) (Xenopus) (UniProt P06897)
[3] = target: H2B S112C-MB nucleosome (MB-modified H2B S112C) (Xenopus)
[4] = target: H2A G2C-MB nucleosome (100% MB-modified H2A G2C, both H2A N-tails biotinylated) (Xenopus); experiment: native gel or EMSA; biotin-modified or unmodified nucleosomes (radiolabelled 601 DNA) incubated with streptavidin in TE buffer for 10 min at room temperature, run on 6% native PAGE (legend of Figure 2B: 5%); mobility shift
[5] = target: asymmetric nucleosome MB/WT (MB-modified H2A/H2B S112C dimer in the upstream position, WT dimer downstream) (Xenopus) (UniProt P06897); experiment: native gel or EMSA; asymmetrically modified nucleosomes on Cy5-labelled DNA incubated with or without streptavidin, 5% acrylamide nucleoprotein gels, imaged by fluorography
[6] = target: asymmetric nucleosome WT/MB (WT dimer in the upstream position, MB-modified H2A/H2B S112C dimer downstream) (Xenopus) (UniProt P06897); experiment: as above

streptavidin, sequence (P22629 25-183): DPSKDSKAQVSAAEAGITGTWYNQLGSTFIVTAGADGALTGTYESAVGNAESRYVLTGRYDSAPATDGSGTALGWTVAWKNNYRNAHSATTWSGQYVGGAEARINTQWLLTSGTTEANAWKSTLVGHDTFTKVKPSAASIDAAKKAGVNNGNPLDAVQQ

Substance | fraction of RSC-mobilized, streptavidin-bound nucleosomes protected from Hind III digestion at the downstream end (about 40% without streptavidin) [1] | fraction of RSC-mobilized, streptavidin-bound nucleosomes protected from Hind III digestion at the downstream end (about 40% without streptavidin) [2] | rate of HhaI digestion during RSC remodeling, nucleosomes with one streptavidin bound (1SA) against unbound nucleosomes [3] | rate of HhaI digestion during RSC remodeling, nucleosomes with two streptavidins bound (2SA) against the unbound control [3] | stoichiometry N (streptavidin per nucleosome) [4] | stoichiometry N (streptavidin per nucleosome) [5] | stoichiometry N (streptavidin per nucleosome) [6]
RSC (Remodels the Structure of Chromatin) complex, yeast (from UniProt P32597 1-1359; Q06168 1-426; Q06488 1-889; Q02206 1-625; Q07979 1-502; Q12406 1-477; Q05123 1-467) | 80% | 20% | 2 fold slower | 20 fold slower | – | – | –
streptavidin (from UniProt P22629 25-183) (natural protein) | – | – | – | – | 1 | 1 | 1
